# Literature values as cited in article PMC10558290.
# Like-named read-outs stand apart in the source and are kept apart here.
# How the values were obtained:
# [1] = target: G-actin (Saccharomyces cerevisiae) (UniProt P60010)
# [2] = target: G-actin (Saccharomyces cerevisiae) (UniProt P60010); remark: listed apart in the source
# Profilin Pfy1, sequence (P07274 whole entry): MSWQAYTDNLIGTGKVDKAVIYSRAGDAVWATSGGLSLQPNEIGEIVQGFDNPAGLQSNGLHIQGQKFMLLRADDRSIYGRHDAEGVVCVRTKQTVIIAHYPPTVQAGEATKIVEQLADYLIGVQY
# Srv2, sequence (P17555 whole entry): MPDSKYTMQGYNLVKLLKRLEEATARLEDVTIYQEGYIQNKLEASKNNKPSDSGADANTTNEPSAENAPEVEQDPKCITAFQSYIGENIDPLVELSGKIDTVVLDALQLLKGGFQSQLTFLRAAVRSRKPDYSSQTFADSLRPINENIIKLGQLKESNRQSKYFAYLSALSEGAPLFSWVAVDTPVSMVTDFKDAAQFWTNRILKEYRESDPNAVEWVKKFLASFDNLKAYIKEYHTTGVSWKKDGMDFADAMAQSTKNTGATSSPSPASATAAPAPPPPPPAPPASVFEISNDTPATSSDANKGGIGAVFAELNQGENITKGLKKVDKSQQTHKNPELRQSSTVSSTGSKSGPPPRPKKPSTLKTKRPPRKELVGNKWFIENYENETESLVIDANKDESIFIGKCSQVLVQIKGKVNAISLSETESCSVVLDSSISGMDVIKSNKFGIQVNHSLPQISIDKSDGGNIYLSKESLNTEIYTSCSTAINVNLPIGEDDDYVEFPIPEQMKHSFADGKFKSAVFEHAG
Kd [1],Kd [2],Substance
100 nM,,Profilin Pfy1 (from UniProt P07274)
,18 nM,Srv2 (from UniProt P17555)
